Reference: paper doi:10.1101/2021.11.20.466133v3

B1: MsDisA (Mycolicibacterium smegmatis MC2 155) (protein)
chain: MAVKSGARSGRNVVHLARPTLRETLGRLAPGTPLRDGLERILRGRTGALIVLGYDDSVEAICDGGFVLDVRYAPTRLRELSKMDGAVVLSSDGSRILRANVQLVPDPSIPTDESGTRHRSAERTAIQTGYPVISVSHSMSIVTVYVAGERHVVPDSATILSRANQTIATLERYKGRLDEVSRQLSTAEIEDFVTLRDVMTVVQRLEMVRRISLEIDADVVELGTDGRQLKLQLDELVGDNETARELIVRDYHANPDPPTAAQVAATLEELDSLSDSELLDFTVLARVFGYPSTAEAQDSAMSSRGYRAMAAIPRLQFAHVDLLVRSFGSLQNLLAASADDLQSVDGIGSMWARHIREGLSLLAESTIADRLA
B2: MsPDE (Mycolicibacterium smegmatis MC2 155) (protein)
chain: MPVTTTDPKTGLLTGPDAQIAGARVDARGAADLLTAASSVSVICHVYPDADTIGAGLALAQVLAASGKHVEVSFATPAQLPESLQSLPGGHLLVAPEAMRRDADLVVTVDIPSINRLGALSGLAGPGREVLVIDHHASNQLFGTANYIDPSADSTTMLVAELLDAWGKPIDEKVAHCLYAGLTTDTGSFRWATARAHRLAARLVELGVDNASISRTLLDTHPFAWLPMLSRVLATARLLPDALDGRGFVYAVVPHDEWSEARPEEVESIVDIVRTTQQAEVAAVFKEIEPMHWSVSMRAKSVNLASVASAFGGGGHPHAAGYSATGSADDVVQALARALG

What was measured:
purified protein [1] = substrate: Nc1ncnc2c1ncn2[C@@H]1O[C@H](COP(=O)(O)OP(=O)(O)OP(=O)(O)O)[C@@H](O)[C@H]1O; experiment: purified protein; settings: pH 7.5, 37 °C, 5 mM MgCl2
purified protein [2] = substrate: [H][C@@]1(O)[C@]2([H])OP(=O)(O)OC[C@@]3([H])O[C@@]([H])(n4cnc5c(N)ncnc54)[C@]([H])(O)[C@]3([H])OP(=O)(O)OC[C@@]2([H])O[C@@]1([H])n1cnc2c(N)ncnc21; experiment: purified protein; settings: pH 7.5, 5 mM MgCl2

Row | Protein | Km (purified protein [1]) | Km (purified protein [2])
1 | B1 | 480 µM | 
2 | B2 |  | 370 µM
